Substrate in this data set: OCc1ccccc1
The data set can be described thus: steady-state kinetics. It counts as biochemical, Equus caballus. To be noted: NAD+; catalytic zinc; 25.0 °C.

B1: Horse liver alcohol dehydrogenase (ADH), E isoenzyme (Equus caballus; V208A) (protein)
chain: STAGKVIKCKAAVLWEEKKPFSIEEVEVAPPKAHEVRIKMVATGICRSDDHVVSGTLVTPLPVIAGHEAAGIVESIGEGVTTVRPGDKVIPLFTPQCGKCRVCKHPEGNFCLKNDLSMPRGTMQDGTSRFTCRGKPIHHFLGTSTFSQYTVVDEISVAKIDAASPLEKVCLIGCGFSTGYGSAVKVAKVTQGSTCAVFGLGGVGLSAIMGCKAAGAARIIGVDINKDKFAKAKEVGATECVNPQDYKKPIQEVLTEMSNGGVDFSFEVIGRLDTMVTALSCCQEAYGVSVIVGVPPDSQNLSMNPMLLLSGRTWKGAIFGGFKSKDSVPKLVADFMAKKFALDPLITHVLPFEKINEGFDLLRSGESIRTILTF
As for B1, the Km is 13 ± 1 µM.

B2: Horse liver alcohol dehydrogenase (ADH), E isoenzyme (Equus caballus) (protein)
chain: STAGKVIKCKAAVLWEEKKPFSIEEVEVAPPKAHEVRIKMVATGICRSDDHVVSGTLVTPLPVIAGHEAAGIVESIGEGVTTVRPGDKVIPLFTPQCGKCRVCKHPEGNFCLKNDLSMPRGTMQDGTSRFTCRGKPIHHFLGTSTFSQYTVVDEISVAKIDAASPLEKVCLIGCGFSTGYGSAVKVAKVTQGSTCAVFGLGGVGLSVIMGCKAAGAARIIGVDINKDKFAKAKEVGATECVNPQDYKKPIQEVLTEMSNGGVDFSFEVIGRLDTMVTALSCCQEAYGVSVIVGVPPDSQNLSMNPMLLLSGRTWKGAIFGGFKSKDSVPKLVADFMAKKFALDPLITHVLPFEKINEGFDLLRSGESIRTILTF
As to B2, the Km was 14 ± 1 µM.

A word on the Km: it is the concentration of substrate that gives half-maximal velocity.

Source of the values: publication PMC3969020.
